Results published in article doi:10.1101/2024.11.22.624932.
Changes are numbered by the printed parent chain. In names and notes the source's numbering stands. Values belong to the binder of their own block, whether it stands above or below them.

Key:
[1] = target: synthetic nanobody (sybody) Sb44; test: SEC
Sb44 V100C [2] = test: SEC
Sb44 V100C [3] = test: SDS-PAGE under non-reducing and reducing conditions

- stoichiometry N [1]: 2
B1: synthetic nanobody (sybody) Sb44 (VHH)
VHH: QVQLVESGGGLVQAGGSLRLSCAASGFPVGRASMWWYRQAPGKEREWVAAISSYGWVTAYADSVKGRFTISRDNAKNTVYLQMNSLKPEDTAVYYCEVSVGTGYRGQGTQVTVSA

- stoichiometry N (Sb44 V100C [2]): 2
- stoichiometry N (Sb44 V100C [3]): 2
B2: Sb44 V100C (VHH)
VHH: B1 VHH with V100C
